Experimental data reported in the supplement of paper PMC12855868.

B1: library; numbered along this chain (parent)
chain: MAAAGGARLLRAASAVLGGPAGRWLHHAGSRAGSSGLLRNRGPGGSAEASRSLSVSARARSSSEDKITVHFINRDGETLTTKGKVGDSLLDVVVENNLDIDGFGACEGTLACSTCHLIFEDHIYEKLDAITDEENDMLDLAYGLTDRSRLGCQICLTKSMDNMTVRVPETVADARQSIDVGKTS

Variants of: B1
Assay: scaled log2 fold change in cell abundance, elesclomol vs control (0 = silent mean, 1 = nonsense mean) (scaled log2 ratio); higher = higher viability under elesclomol (loss of FDX1 cuproptosis function)
Details: glucose 10 mM
[1] = with ABC1 FDX1 KO, elesclomol 5 nM, 14 days
[2] = with HEK293T FDX1 KO, elesclomol 40 nM, 11 days
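Further: variant abundance is its share of total variant reads in each endpoint sample, from next-generation sequencing of the integrated ORF PCR-amplified out of genomic DNA.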

Variant	scaled log2 fold change [1]	scaled log2 fold change [2]
D136V	0.459	0.696
T114G	-1.41	-0.22
A59C	-0.665	0.732
A59P	-0.0792	
N96F	0.145	-0.464
N96K	-0.0525	-0.121
L38R	0.333	1.23
L38F	0.294	0.135
S46K	0.678	0.519
S177I	-0.08	0.665
S177G	-0.315	0.0748
S177P	-0.213	-0.486
T183C	0.0469	-0.686
T183W	-0.19	0.214
Q153T	0.212	-0.179
G44K	0.187	-0.0828
G44C	-0.366	0.858
L156S	0.388	0.852
G76D	0.21	1.47
L150A	0.335	0.397
D99R	-0.084	0.945
A57K	0.162	-1.1
A57H	0.158	-0.799
E169I	-0.202	-0.174

Variant	scaled log2 fold change [1]	scaled log2 fold change [2]
R39H	0.0443	-0.509
R39F	0.0891	-0.0588
K82C	0.296	0.165
K82N	-0.873	0.352
S61R	-0.524	
L37S	0.557	-0.131
V94A	0.0221	0.0839
D65I	0.277	
N135V	0.161	0.0375
R8K	0.28	-0.152
R8V	0.395	0.881
A4L	-0.0228	0.193
D173A	0.245	0.105
L9W	0.434	0.233
L9D	0.403	-0.529
L9Q	-0.0581	1.04
D179V	-0.0481	0.172
S113T	0.186	0.232
S113L	0.0304	0.215
P168F	0.153	0.798
G6D	-0.00796	-0.86
G6K	0.0797	-0.166
T78G	-0.0398	0.179
T78W	-0.127	-0.938

Variant	scaled log2 fold change [1]	scaled log2 fold change [2]
A111M	-0.315	1.22
H26N	0.169	-0.198
H26M	0.23	
H26P	-0.00391	
H26A	0.684	1.75
V55S	0.162	-0.104
V55Y	0.0351	
A129W	-0.08	1.07
A129E	-0.447	-0.333
G86Q	-0.2	0.928
G86W	0.246	
G86R	0.269	-0.218
V171H	-0.198	-0.163
S35A	-0.0215	0.327
S35R	-0.768	-0.669
R51M	-0.235	
F71L	-0.0155	-0.376
F71C	0.161	0.0168
F71W	0.102	-0.726
L144E	0.116	0.0837
G42S	0.232	-0.298
G42L	0.249	0.513
L138Q	-0.00504	0.34
L138W	0.885	0.749

Variant	scaled log2 fold change [1]	scaled log2 fold change [2]
E77I	-0.922	-0.714
G143S	-0.338	0.106
A174P	-0.155	-0.277
A174L	0.255	0.483
A174H	0.267	-0.0112
T145Q	0.226	-1.28
T145A	-0.6	0.187
T145E	-0.0343	-0.344
T157K	0.0573	-0.19
T157Q	0.0955	1.04
E107Y	0.333	-0.16
E107D	-0.195	0.683
A12P	-0.154	-0.436
A12L	0.128	-0.0278
A12S	0.0823	1.03
A12F	0.00609	-0.148
E125F	-0.241	0.00284
T68N	0.00412	-0.202
T68R	-0.0852	-0.377
L98W	0.476	0.189
L98S	0.421	-0.0745
S30D	0.413	0.89
A13S	0.157	0.0322
G36N	0.0293	0.187

Variant	scaled log2 fold change [1]	scaled log2 fold change [2]
G36W	-0.615	1.33
G36R	-0.252	0.0429
E120V	0.256	-0.849
E120G	0.367	-0.0815
E120F	0.141	-0.0751
W24C	0.00637	-0.0787
D91F	0.29	-0.219
M160A	0.233	-0.241
M160S	0.278	0.0347
M160T	0.347	0.674
C115S	1.09	1.13
C115P	1.1	1.51
R60P	-0.332	0.626
Y124W	-0.403	-0.22
I154S	0.481	0.0924
I154K	0.995	0.727
A3Y	-0.181	0.561
A3M	-0.131	0.396
S148D	0.488	0.491
S148I	0.277	1.81
N73T	-0.183	
L90F	0.00898	-0.179
